From PMC8274241
Like-named read-outs stand apart in the source and are kept apart here.

Experiments:
Experiment in all cases: cryo-EM
LshCas13a [1] = target: T1, LshCas13a (Leptotrichia shahii, UniProt P0DOC6 1-1389)
T1 sequence: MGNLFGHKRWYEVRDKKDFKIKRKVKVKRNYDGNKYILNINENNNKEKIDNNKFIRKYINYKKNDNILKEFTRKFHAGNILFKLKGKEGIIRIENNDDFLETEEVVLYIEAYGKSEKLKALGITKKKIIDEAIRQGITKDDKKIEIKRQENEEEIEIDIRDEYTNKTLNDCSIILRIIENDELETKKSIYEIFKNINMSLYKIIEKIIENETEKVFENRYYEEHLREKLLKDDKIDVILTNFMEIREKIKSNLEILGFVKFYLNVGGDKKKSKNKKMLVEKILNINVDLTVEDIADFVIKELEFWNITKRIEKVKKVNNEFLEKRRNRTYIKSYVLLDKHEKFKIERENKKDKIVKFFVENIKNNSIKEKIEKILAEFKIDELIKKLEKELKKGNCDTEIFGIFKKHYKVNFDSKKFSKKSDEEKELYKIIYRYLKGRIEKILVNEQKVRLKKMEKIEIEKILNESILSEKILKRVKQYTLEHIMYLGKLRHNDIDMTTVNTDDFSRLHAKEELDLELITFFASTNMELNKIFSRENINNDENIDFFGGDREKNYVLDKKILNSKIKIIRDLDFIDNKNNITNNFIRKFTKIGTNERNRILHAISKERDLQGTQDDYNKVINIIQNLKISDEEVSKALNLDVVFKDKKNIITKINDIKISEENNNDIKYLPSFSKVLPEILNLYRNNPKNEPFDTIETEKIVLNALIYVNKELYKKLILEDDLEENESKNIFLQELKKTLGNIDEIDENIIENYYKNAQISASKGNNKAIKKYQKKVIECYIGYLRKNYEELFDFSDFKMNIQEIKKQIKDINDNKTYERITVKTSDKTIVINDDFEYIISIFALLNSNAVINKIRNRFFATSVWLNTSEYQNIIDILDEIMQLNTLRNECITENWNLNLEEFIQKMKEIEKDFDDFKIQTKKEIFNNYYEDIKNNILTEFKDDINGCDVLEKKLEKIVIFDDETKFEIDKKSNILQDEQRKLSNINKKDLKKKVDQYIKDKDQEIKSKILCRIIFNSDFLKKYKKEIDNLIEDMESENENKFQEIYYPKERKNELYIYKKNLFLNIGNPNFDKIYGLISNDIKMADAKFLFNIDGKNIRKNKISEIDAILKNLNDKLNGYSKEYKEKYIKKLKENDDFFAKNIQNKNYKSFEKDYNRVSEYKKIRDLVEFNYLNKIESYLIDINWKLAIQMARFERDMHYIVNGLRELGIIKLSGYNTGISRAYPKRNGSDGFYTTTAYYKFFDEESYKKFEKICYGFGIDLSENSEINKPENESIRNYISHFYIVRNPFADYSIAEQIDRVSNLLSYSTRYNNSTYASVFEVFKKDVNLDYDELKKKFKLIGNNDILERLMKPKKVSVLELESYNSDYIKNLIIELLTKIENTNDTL

LshCas13a [2] = target: T1, LshCas13a; remark: listed apart in the source
LshCas13a [3] = target: T1, LshCas13a; remark: listed apart in the source

B1: Lsh crRNA (56-nt as named) + RNA6 (8-nt anti-tag) (mixed)
RNA 1: GGCCACCCCAAUAUCGAAGGGGACUAAAACUAGAUUGCUGUUCUACCAAGUAAUCCAU
RNA 2: GAUGGAUUACUUGGUAGAACAGCAAUCUAGUUUUAGU
binding result (LshCas13a [1]): binds

B2: Lsh crRNA alone (structured_RNA)
RNA: B1 RNA 1
binding result (LshCas13a [2]): binds

B3: Lsh crRNA + RNA4 (no anti-tag) (mixed)
RNA 1: B1 RNA 1
RNA 2: GAUGGAUUACUUGGUAGAACAGCAAUCUACAAAAUCA
binding result (LshCas13a [3]): binds
